Data published in patent US20170298146A1 (MODIQUEST B V, published 2017).
Non-standard residues stand in square brackets, D forms with d. No end group written: not given here. Cit = NC(=O)NCCC[C@H](N)C(=O)O

Experiments:
[1] = molecular target: T1, msFibα XH (mouse, X at position 15 is citrulline; biotin label); assay: peptide ELISA, 0.016 ug/well
T1 peptide: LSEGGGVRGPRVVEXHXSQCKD
Experimental: (§1) Biotin and citrulline-containing peptides derived from fibrinogen and vimentin were immobilized on NEUTRAVIDIN®-coated 96-well ELISA plates (0.3 μg/well). CFC-1 and CFC-0 were coated at the same concentration and served as positive and negative controls respectively for specific anti-citrulline reactivity and as coating controls. Non-coated wells were used to test for aspecific binding of the antibodies. […] Detection of bound anti-citrulline antibodies was performed by incubating the wells with rabbit-anti-human-HRP (1:2000) for one hour at RT followed by incubation with TMB substrate. The resulting OD (y-axis) is a measure for antibody binding.
(§2) Biotin-labeled and citrulline-containing fibrinogen and vimentin peptides (Table 5) were also tested for reactivity with the therapeutic antibodies. Peptides were coated on 96-well NEUTRAVIDIN®-ELISA plates.

[2] = molecular target: T2, msFibβ XG (mouse, also: biotin label); assay: peptide ELISA, 0.016 ug/well
T2 peptide: EPTDSLDA[Cit]GHRPVDRR
Experimental: as §1, §2

[3] = molecular target: T3, huFibα XH (human, X at position 15 is citrulline; biotin label); assay: peptide ELISA, 0.016 ug/well
T3 peptide: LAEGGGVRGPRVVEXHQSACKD
Experimental: as §1, §2

[4] = molecular target: T4, huFibα XG (human, X at position 8 is citrulline; biotin label); assay: peptide ELISA, 0.016 ug/well
T4 peptide: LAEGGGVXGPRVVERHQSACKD
Experimental: as §1, §2

[5] = molecular target: T5, CFC-1; assay: peptide ELISA, 0.016 ug/well
T5 construct: Positive control for anti-citrulline reactivity; also called cfc1 XG
Experimental: as §1, §2

[6] = molecular target: T6, msFibα XG (mouse, X at position 8 is citrulline; biotin label); assay: peptide ELISA, 0.016 ug/well
T6 peptide: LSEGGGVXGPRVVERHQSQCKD
Experimental: as §1, §2

[7] = molecular target: T7, msVim XS/XL (mouse, also: biotin label); assay: peptide ELISA, 0.016 ug/well
T7 construct: also called mouse vimentin peptide
T7 peptide: YVT[Cit]SSAV[Cit]L[Cit]SSVP
Experimental: as §1, §2

[8] = molecular target: T1, msFibα XH; assay: peptide ELISA, 2 ug/well
Experimental: as §1, §2

[9] = molecular target: T2, msFibβ XG; assay: peptide ELISA, 2 ug/well
Experimental: as §1, §2

[10] = molecular target: T3, huFibα XH; assay: peptide ELISA, 2 ug/well
Experimental: as §1, §2

[11] = molecular target: T4, huFibα XG; assay: peptide ELISA, 2 ug/well
Experimental: as §1, §2

[12] = molecular target: T5, CFC-1; assay: peptide ELISA, 2 ug/well
Experimental: as §1, §2

[13] = molecular target: T6, msFibα XG; assay: peptide ELISA, 2 ug/well
Experimental: as §1, §2

[14] = molecular target: T7, msVim XS/XL; assay: peptide ELISA, 2 ug/well
Experimental: as §1, §2

[15] = molecular target: T8, Histone 2A citrulline-containing peptide 2 (human, also: biotin label); assay: peptide ELISA, 10 ug/well
T8 peptide: AKAKS[Cit]SSRAGL
Experimental: as §1, with “histone 2A” for “fibrinogen and vimentin”
(§3) Ninety-six-well ELISA plates were coated with NEUTRAVIDIN® (0.1 μg/well) by overnight incubation at 4° C. Wells were washed five times with PBS-TWEEN®-20 (PBS-T) and blocked by a one-hour incubation with PBS-T+1% Bovine serum albumin (BSA) at room temperature (RT). After five more washes with PBS-T, wells were incubated for one hour at RT with histone-derived citrulline and biotin-containing peptides (0.3 μg/well). […] Wells were washed five times with PBS-T and incubated with rabbit-anti-human-HRP (1:2000) for one hour at RT followed by five washes with PBS-T and three wash steps with PBS. Wells were incubated for five minutes with TMB substrate before stopping the reaction with 2 M H₂SO₄. Optical density was measured by 450 nm and is a measure for the affinity of the antibodies used.

[16] = molecular target: T9, Histone 2A citrulline-containing peptide 4 (human, also: biotin label); assay: peptide ELISA, 10 ug/well
T9 peptide: QFPVG[Cit]VHRLLR
Experimental: as §1, with “histone 2A” for “fibrinogen and vimentin”
as §3

[17] = molecular target: T10, Histone 2A citrulline-containing peptide 9 (human, also: biotin label); assay: peptide ELISA, 10 ug/well
T10 peptide: DNKKT[Cit]IIPRHL
Experimental: as §1, with “histone 2A” for “fibrinogen and vimentin”
as §3

[18] = molecular target: T11, Histone 2A citrulline-containing peptide 5 (human, also: biotin label); assay: peptide ELISA, 10 ug/well
T11 peptide: VGRVH[Cit]LLRKGN
Experimental: as §1, with “histone 2A” for “fibrinogen and vimentin”
as §3

[19] = molecular target: T5, CFC-1; assay: peptide ELISA, 10 ug/well
Experimental: as §1, with “histone 2A” for “fibrinogen and vimentin”
as §3

[20] = molecular target: T12, Histone 2A citrulline-containing peptide 11 (human, also: biotin label); assay: peptide ELISA, 10 ug/well
T12 peptide: LQLAI[Cit]NDEELN
Experimental: as §1, with “histone 2A” for “fibrinogen and vimentin”
as §3

[21] = molecular target: T1, msFibα XH; assay: peptide ELISA, 10 ug/well
Experimental: as §1, §2

[22] = molecular target: T2, msFibβ XG; assay: peptide ELISA, 10 ug/well
Experimental: as §1, §2

[23] = molecular target: T3, huFibα XH; assay: peptide ELISA, 10 ug/well
Experimental: as §1, §2

[24] = molecular target: T4, huFibα XG; assay: peptide ELISA, 10 ug/well
Experimental: as §1, §2

[25] = molecular target: T5, CFC-1; assay: peptide ELISA, 10 ug/well; remark: listed apart in the source
Experimental: as §1, §2

[26] = molecular target: T6, msFibα XG; assay: peptide ELISA, 10 ug/well
Experimental: as §1, §2

[27] = molecular target: T7, msVim XS/XL; assay: peptide ELISA, 10 ug/well
Experimental: as §1, §2

B1: RhmAb2.102 (antibody, human IgG1, lambda)
heavy: not shown
light: QSVLTQPPSMSAAPGQKVTISCSGSSSNIGNNYVSWYQQVPGTAPKLLIYDDNKRPSGIPGRFSGSKSATSATLGITGLQAGDEADYYCGSWDDNLSVVLFGGGTKLTVLGQPKAAPSVTLFPPSSEELQANKATLVCLISDFYPGAVTVAWKADSSPVKAGVETTTPSKQSNNKYAASSYLSLTPEQWKSHRSYSCQVTHEGSTVEKTVAPTECS
notes: Human IgG1 lambda; also called Rhm2.102
- OD [1]: 0.081 OD
- OD [2]: 0.174 OD
- OD [3]: 0.08 OD
- OD [4]: 0.103 OD
- OD [5]: 1.22 OD
- OD [6]: 0.107 OD
- OD [7]: 0.201 OD
- OD [8]: 0.091 OD
- OD [9]: 3.15 OD
- OD [10]: 0.116 OD
- OD [11]: 1.51 OD
- OD [12]: 3.97 OD
- OD [13]: 1.9 OD
- OD [14]: 2.77 OD
- OD [15]: 0.552 OD
- OD [16]: 2.06 OD
- OD [17]: 0.09 OD
- OD [18]: 0.239 OD
- OD [19]: 3.27 OD
- OD [20]: 0.088 OD
- OD [21]: 0.154 OD
- OD [22]: 3.8 OD
- OD [23]: 0.179 OD
- OD [24]: 2.73 OD
- OD [25]: 3.89 OD
- OD [26]: 3.03 OD
- OD [27]: 3.69 OD
